Results published in patent US20200062840A1 (KINDRED BIOSCIENCES, published 2020).

B1: mouse monoclonal antibody M14 (antibody, V domains shown)
VH: EVQLQESGPSLVKPSQTLSLTCSVTGDSITSGYWNWIRKFPGNKLEYMGYISYSGITDYNPSLKSRISITRDTSKNQYYLQLNSVTTEDTATYYCARYGNYGYAMDYWGQGTSVTVSS
VL: DIVLTQSPASLAVSLGQRATISCRASESVDTYGNSFMHWYQQKSGQSPKLLIYRASNLESGIPARFGGSGSRTDFTLTIDPVEADDVATYYCQQSYEDPWTFGGGTKLEIK
B2: caninized M14 IgG-B (antibody, V domains shown)
VH: EVQLVESGPSLVKPGGSLRLTCSVTGDSITSGYWNWIRKFPGNKLEYMGYISYSGITDYNPSLKSRITISRDTSKNQYYLQLNSVTTEDTATYYCARYGNYGYAMDYWGQGTLVTVSS
VL: DIVMTQSPASLSVSLGQRATISCRASESVDTYGNSFMHWYQQKPGQSPKLLIYRASNLESGIPARFGGSGSGTDFTLTIDPVQADDVATYYCQQSYEDPWTFGGGTKLEIKR
notes: canine IgG-B heavy chain and canine light chain constant region; also called caninized M14 antibody

How the values were obtained:
[1] = target: biotinylated equine IL31 (equine); experiment: BLI, biotinylated equine IL31 immobilized to the sensor; preliminary measurement; upper end of the range; preliminary measurement
[2] = target: biotinylated equine IL31 (equine); experiment: BLI, biotinylated equine IL31 immobilized to the sensor; preliminary measurement; lower end of the range; preliminary measurement
[3] = target: T1, canine IL31 with C-terminal polyHis tag (canine, biotinylated at primary amine groups (NHS-LC-Biotin) or at glycan groups (Biotin-LC-Hydrazide)); experiment: BLI (Octet), canine IL31 (amine-conjugated-biotin) on streptavidin tips, antibody at 400, 200, 66.6 and 33 nM, 2:1 model; canine IL31 (amine-conjugated-biotin)
T1 construct: also called biotinylated canine IL31; canine IL31 (amine-conjugated-biotin); not shown: C-terminal poly-His tag
T1 chain: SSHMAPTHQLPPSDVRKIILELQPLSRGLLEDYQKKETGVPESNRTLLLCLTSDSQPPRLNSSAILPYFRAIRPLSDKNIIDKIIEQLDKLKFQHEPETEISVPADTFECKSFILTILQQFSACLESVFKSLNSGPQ
Experimental: (§1) The binding analysis was performed using a biosensor Octet as follows. Briefly, canine IL31 was biotinylated at primary amine groups using EZ-Link™ NHS-LC-Biotin (Thermo Scientific, Catalog No. 21336) or at glycan groups using EZ-Link™ Biotin-LC-Hydrazide (ThermoFisher Scientific, Catalog No. 21340) according to the manufacturer's instructions. The free unreacted biotin was removed from biotinylated IL31 by extensive dialysis. Biotinylated canine IL31 was captured on streptavidin sensor tips. The association of four different concentrations (400, 200, 66.6, and 33 nM) of chimeric and caninized M14 antibody and human and canine IL31 (amine-conjugated-biotin) and the association of 100 nM of caninized M14 antibody and canine IL31 (glycan-conjugated-biotin) was monitored for ninety seconds. Dissociation was monitored for 600 seconds. A buffer only blank curve was subtracted to correct for any drift. The data were fit to a 2:1 binding model using ForteBio™ data analysis software to determine the kₒₙ, koff, and the Kd. The buffer for dilutions and all binding steps was: 20 mM phosphate, 150 mM NaCl, pH 7.2.

[4] = target: T1, canine IL31 with C-terminal polyHis tag; experiment: BLI (Octet), canine IL31 (glycan-conjugated-biotin) on streptavidin tips, antibody at 100 nM, 2:1 model; canine IL31 (glycan-conjugated-biotin)
Experimental: as §1

Chain of biotinylated equine IL31 (equine) (chain, as listed by the source limits assumed, form in doubt): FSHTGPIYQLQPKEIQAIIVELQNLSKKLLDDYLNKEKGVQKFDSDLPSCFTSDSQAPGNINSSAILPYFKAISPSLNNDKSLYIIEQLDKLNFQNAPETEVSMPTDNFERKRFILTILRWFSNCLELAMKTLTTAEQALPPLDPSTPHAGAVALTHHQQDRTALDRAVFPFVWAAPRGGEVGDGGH

Binder | Kd [1] | Kd [2] | Kd [3] | Kd [4] | koff [4]
B1 | < 50 nM | > 10 nM |  |  | 
B2 |  |  | < 0.01 nM | < 0.001 nM | < 1e-07 s⁻¹
